Target: cynomolgus CD73 expressed at the cell surface (cynomolgus)
Experiment: flow cytometry titration on cynomolgus-CD73-expressing cell line

- EC50: 1.15 µg/mL
- fold higher concentration (EC50) than 7H10: 4 fold
Substance: antibody AD2 (Biolegend Corp, product ref. 344004)
